Results published in article PMC12921663, “NanoBondy Reaction through NeissLock Anhydride Allows Covalent Immune Cell Decoration” (Bioconjugate Chemistry, 2026).

Legend:
[1] = biological target: T1, CD45d1d2 (d1 and d2 domains of human CD45 linked to an AviTag) (Homo sapiens, biotin (site-specific, on the AviTag); N-linked glycosylation); assay: ELISA; nanobodies coated on a plate, incubated with the indicated concentrations of biotinylated CD45d1d2; colorimetric detection (absorbance at 450 nm); conditions: both partners purified
T1 construct: CD45, human, extracellular domains d1 and d2; Construct limits may stand in the Supporting Information; also called biotinylated human CD45 domains 1 and 2; source: Expi293F cells, purified
T1 chain: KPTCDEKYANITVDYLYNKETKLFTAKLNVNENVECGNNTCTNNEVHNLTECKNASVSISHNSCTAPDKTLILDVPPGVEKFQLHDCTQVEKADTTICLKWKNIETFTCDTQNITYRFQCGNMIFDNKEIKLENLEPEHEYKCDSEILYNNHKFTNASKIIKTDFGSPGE

[2] = biological target: T2, endogenous human CD45 at the cell surface (Homo sapiens, UniProt P08575-4); assay: flow cytometry on cells; nanobodies incubated with Expi293F, NK92 or YTS cells; detected with anti-VHH-Alexa Fluor 647; conditions: one partner purified
T2 construct: CD45, human, endogenous; also called CD45RO; source: endogenous, on YTS and NK92 cells and on primary human CD8+ T cells
T2 sequence (P08575 other isoform, or with tags, fused parts or gaps): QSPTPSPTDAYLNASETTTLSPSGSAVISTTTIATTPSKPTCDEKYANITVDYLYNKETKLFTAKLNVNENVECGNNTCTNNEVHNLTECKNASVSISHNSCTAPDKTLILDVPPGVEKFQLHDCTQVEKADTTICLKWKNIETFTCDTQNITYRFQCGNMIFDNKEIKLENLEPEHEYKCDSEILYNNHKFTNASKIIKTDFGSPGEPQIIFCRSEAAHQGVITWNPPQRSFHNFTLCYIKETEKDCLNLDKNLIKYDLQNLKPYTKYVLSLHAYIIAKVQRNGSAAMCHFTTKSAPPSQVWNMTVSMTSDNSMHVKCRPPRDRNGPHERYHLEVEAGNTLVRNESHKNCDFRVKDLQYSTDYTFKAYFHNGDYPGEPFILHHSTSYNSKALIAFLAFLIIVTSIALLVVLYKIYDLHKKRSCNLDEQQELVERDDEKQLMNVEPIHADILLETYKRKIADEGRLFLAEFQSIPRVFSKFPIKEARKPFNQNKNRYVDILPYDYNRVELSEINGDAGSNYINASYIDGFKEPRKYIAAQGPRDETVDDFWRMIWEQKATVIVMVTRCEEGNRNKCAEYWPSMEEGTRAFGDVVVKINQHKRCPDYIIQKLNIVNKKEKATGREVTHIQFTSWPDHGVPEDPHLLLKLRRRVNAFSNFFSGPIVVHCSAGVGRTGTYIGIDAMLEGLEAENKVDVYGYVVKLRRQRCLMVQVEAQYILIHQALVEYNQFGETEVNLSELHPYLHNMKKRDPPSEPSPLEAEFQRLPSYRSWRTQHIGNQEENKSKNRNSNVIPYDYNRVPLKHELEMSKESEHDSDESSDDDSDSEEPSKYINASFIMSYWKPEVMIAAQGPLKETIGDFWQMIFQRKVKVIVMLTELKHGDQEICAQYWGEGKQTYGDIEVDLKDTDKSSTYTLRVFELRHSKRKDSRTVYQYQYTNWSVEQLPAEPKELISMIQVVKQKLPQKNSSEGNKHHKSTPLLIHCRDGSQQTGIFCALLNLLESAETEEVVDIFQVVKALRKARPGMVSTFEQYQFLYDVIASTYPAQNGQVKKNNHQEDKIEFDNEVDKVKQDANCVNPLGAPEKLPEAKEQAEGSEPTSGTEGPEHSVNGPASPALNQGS

B1: anti-CD45 nanobody 2H5 (VHH)
VHH: QVQLQESGGGLVQTGGSLTLSCVASGGTFSSYAMGWFRQAPGKEREFVAAIGGSGDSTYYADSVKGRFTISRDNAKNSVYLQMNSLKPEDTAVYYCQADPTMFHKLYYGINPNEYDYWGQGTLVTVSS
notes: VHH 2H5 against the d1d2 region of human CD45, from llama immunization; the source of the nanobodies is a cited earlier work
- binding result [1]: binds
- binding result [2]: binds
